{"source": "paper PMC2809015", "about": "(Biochemistry, 2009)", "binders": {"B1": {"name": "HscA substrate binding domain (SBD-HscA, residues 389-616) (domain or fragment, E. coli, UniProt P0A6Z1 389-616, looked up)", "chain": "LDVIPLSLGLETMGGLVEKVIPRNTTIPVARAQDFTTFKDGQTAMSIHVMQGERELVQDCRSLARFALRGIPALPAGGAHIRVTFQVDADGLLSVTAMEKSTGVEASIQVKPSYGLTDSEIASMIKDSMSYAEQDVKARMLAEQKVEAARVLESLHGALAADAALLSAAERQVIDDAAAHLSEVAQGDDVDAIEQAIKNVDKQTQDFAARRMDQSVRRALKGHSVDEV"}, "B2": {"name": "BioB containing one [2Fe-2S]2+ cluster per monomer (enzyme, E. coli, UniProt P12996 1-346, looked up)", "chain": "MAHRPRWTLSQVTELFEKPLLDLLFEAQQVHRQHFDPRQVQVSTLLSIKTGACPEDCKYCPQSSRYKTGLEAERLMEVEQVLESARKAKAAGSTRFCMGAAWKNPHERDMPYLEQMVQGVKAMGLEACMTLGTLSESQAQRLANAGLDYYNHNLDTSPEFYGNIITTRTYQERLDTLEKVRDAGIKVCSGGIVGLGETVKDRAGLLLQLANLPTPPESVPINMLVKVKGTPLADNDDVDAFDFIRTIAVARIMMPTSYVRLSAGREQMNEQTQAMCFMAGANSIFYGCKLLTTPNPEEDKDLQLFRKLGLNPQQTAVLAGDNEQQQRLEQALMTPDTDEYYNAAAL"}}, "key": {"[1]": {"target": "B2", "assay": "molecular weight filtration assay"}, "[2]": {"target": "the molecule itself", "assay": "AUC"}, "[3]": {"target": "T1, HscA, Hsp70-class molecular chaperone of the isc operon (E. coli, UniProt P0A6Z1 1-616)", "T1 sequence (looked up)": "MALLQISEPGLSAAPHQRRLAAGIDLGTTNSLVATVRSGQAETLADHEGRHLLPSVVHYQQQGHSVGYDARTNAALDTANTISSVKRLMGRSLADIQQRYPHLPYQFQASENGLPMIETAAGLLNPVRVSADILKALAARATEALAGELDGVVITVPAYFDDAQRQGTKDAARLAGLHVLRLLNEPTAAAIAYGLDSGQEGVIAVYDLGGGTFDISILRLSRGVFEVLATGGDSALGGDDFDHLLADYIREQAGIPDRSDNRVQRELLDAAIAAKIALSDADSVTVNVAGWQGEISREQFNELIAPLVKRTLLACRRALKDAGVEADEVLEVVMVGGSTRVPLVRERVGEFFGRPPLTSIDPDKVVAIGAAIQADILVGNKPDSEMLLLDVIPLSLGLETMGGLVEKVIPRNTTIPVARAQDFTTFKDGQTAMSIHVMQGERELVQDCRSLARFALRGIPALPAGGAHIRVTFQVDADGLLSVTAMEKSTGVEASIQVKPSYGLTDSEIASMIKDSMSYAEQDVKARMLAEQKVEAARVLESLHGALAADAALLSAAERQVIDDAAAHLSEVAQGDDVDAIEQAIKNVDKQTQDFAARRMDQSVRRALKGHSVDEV", "assay": "AUC"}, "[4]": {"target": "T1, HscA, Hsp70-class molecular chaperone …", "assay": "molecular weight filtration assay"}, "[5]": {"target": "T1, HscA, Hsp70-class molecular chaperone …", "assay": "molecular weight filtration assay", "remark": "listed apart in the source"}, "[6]": {"target": "T1, HscA, Hsp70-class molecular chaperone …", "assay": "molecular weight filtration assay", "remark": "listed apart in the source"}, "[7]": {"target": "B1", "assay": "molecular weight filtration assay"}, "[8]": {"target": "the molecule itself", "assay": "AUC", "remark": "listed apart in the source"}, "[9]": {"target": "T1, HscA, Hsp70-class molecular chaperone …", "assay": "molecular weight filtration assay", "remark": "listed apart in the source"}}, "note": "Where “and” joins values, the source holds several entries; their conditions need not be identical. Equal entries are not always repeated. Where two headings read alike, the source gives them in different places.", "data": [{"binder": "B1", "values": [{"measurement": "Kd", "setting": "[1]", "result": "0.55 ± 0.3", "unit": "µM"}]}, {"binder": "B2", "values": [{"measurement": "stoichiometry N", "setting": "[2]", "result": 2}, {"measurement": "Kd", "setting": "[3]", "result": 12, "unit": "µM"}, {"measurement": "stoichiometry N", "setting": "[3]", "result": "1 HscA per BioB dimer and 2 HscA per BioB dimer"}, {"measurement": "Kd", "setting": "[4]", "result": "~5", "unit": "µM"}, {"measurement": "Kd", "setting": "[5]", "result": "5.5 µM and 5.6 µM"}, {"measurement": "stoichiometry N", "setting": "[6]", "result": "~1", "unit": "HscA per BioB dimer"}, {"measurement": "stoichiometry N", "setting": "[7]", "result": 1}]}, {"binder": "BioB containing both [2Fe-2S]2+ and [4Fe-4S]2+ clusters (enzyme, E. coli, UniProt P12996 1-346, looked up) MAHRPRWTLSQVTELFEKPLLDLLFEAQQVHRQHFDPRQVQVSTLLSIKTGACPEDCKYCPQSSRYKTGLEAERLMEVEQVLESARKAKAAGSTRFCMGAAWKNPHERDMPYLEQMVQGVKAMGLEACMTLGTLSESQAQRLANAGLDYYNHNLDTSPEFYGNIITTRTYQERLDTLEKVRDAGIKVCSGGIVGLGETVKDRAGLLLQLANLPTPPESVPINMLVKVKGTPLADNDDVDAFDFIRTIAVARIMMPTSYVRLSAGREQMNEQTQAMCFMAGANSIFYGCKLLTTPNPEEDKDLQLFRKLGLNPQQTAVLAGDNEQQQRLEQALMTPDTDEYYNAAAL", "values": [{"measurement": "stoichiometry N", "setting": "[6]", "result": "~1", "unit": "HscA per BioB dimer"}]}, {"binder": "BioB apoprotein (His6-biotin synthase lacking both iron-sulfur clusters) (enzyme, E. coli, UniProt P12996 1-346, looked up) MAHRPRWTLSQVTELFEKPLLDLLFEAQQVHRQHFDPRQVQVSTLLSIKTGACPEDCKYCPQSSRYKTGLEAERLMEVEQVLESARKAKAAGSTRFCMGAAWKNPHERDMPYLEQMVQGVKAMGLEACMTLGTLSESQAQRLANAGLDYYNHNLDTSPEFYGNIITTRTYQERLDTLEKVRDAGIKVCSGGIVGLGETVKDRAGLLLQLANLPTPPESVPINMLVKVKGTPLADNDDVDAFDFIRTIAVARIMMPTSYVRLSAGREQMNEQTQAMCFMAGANSIFYGCKLLTTPNPEEDKDLQLFRKLGLNPQQTAVLAGDNEQQQRLEQALMTPDTDEYYNAAAL", "values": [{"measurement": "stoichiometry N", "setting": "[8]", "result": 2}, {"measurement": "stoichiometry N", "setting": "[6]", "result": 0.96, "unit": "apoBioB dimer per HscA"}]}, {"binder": "dethiobiotin synthase (BioD) (enzyme) SKRYFVTGTDTEVGKTVASCALLQAAKAAGYRTAGYKPVASGSEKTPEGLRNSDALALQRNSSLQLDYATVNPYTFAEPTSPHIISAQEGRPIESLVMSAGLRALEQQADWVLVEGAGGWFTPLSDTFTFADWVTQEQLPVILVVGVKLGCINHAMLTAQVIQHAGLTLAGWVANDVTPPGKRHAEYMTTLTRMIPAPLLGEIPWLAENPENAATGKYINLALL", "values": [{"measurement": "Kd", "setting": "[9]", "result": "≥ 1100", "unit": "µM"}]}]}
